Reference: PMC4922050, “Stress-induced nuclear translocation of CDK5 suppresses neuronal death by downregulating ERK activation via VRK3 phosphorylation” (Scientific Reports, 2016)
Substitutions are numbered along the chain they refer to.

Key:
Test in all cases: pull-down; GST-VRK3 (wild type, S108A, S108E) incubated overnight with recombinant VHR or recombinant phospho-ERK2 in Triton lysis buffer with 1 mM DTT and 10% glycerol, then glutathione-sepharose 4B beads at 4 °C for 1 h
Details in all cases: both partners purified
GST-VRK3^S108A = target: T1, GST-VRK3^S108A (human, UniProt Q8IV63 1-474, S108A)
T1 construct: vaccinia-related kinase 3 (VRK3), human; S108A made by site-directed mutagenesis in pGEX4T-3; pGEX4T-3 vector; also called S108A mutant VRK3; source: E. coli BL21 (DE3) pLysS, purified (glutathione-sepharose 4B)
T1 sequence (looked up): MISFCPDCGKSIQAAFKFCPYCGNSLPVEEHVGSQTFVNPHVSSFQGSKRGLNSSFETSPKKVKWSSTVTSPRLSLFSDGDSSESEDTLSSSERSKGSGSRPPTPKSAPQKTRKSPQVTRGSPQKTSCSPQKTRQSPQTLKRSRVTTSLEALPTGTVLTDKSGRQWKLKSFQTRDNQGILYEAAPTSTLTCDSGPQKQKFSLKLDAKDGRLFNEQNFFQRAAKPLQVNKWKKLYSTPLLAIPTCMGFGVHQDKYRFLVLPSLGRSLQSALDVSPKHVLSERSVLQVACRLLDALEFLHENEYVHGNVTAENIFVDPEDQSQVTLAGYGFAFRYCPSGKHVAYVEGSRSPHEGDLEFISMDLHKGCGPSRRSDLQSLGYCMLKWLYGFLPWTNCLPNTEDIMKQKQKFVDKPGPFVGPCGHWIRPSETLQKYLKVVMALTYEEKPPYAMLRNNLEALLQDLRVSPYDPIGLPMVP

[1] = target: T2, GST-tagged recombinant full-length VRK3 (vaccinia-related kinase 3), wild type (human, UniProt Q8IV63 1-474)
T2 construct: vaccinia-related kinase 3 (VRK3), human; coding region amplified by RT-PCR from mRNA of human cell lines and cloned into pGEX4T-3; full length (fragment F3 ends at amino acid 474); pGEX4T-3 vector; also called GST-VRK3; VRK3^WT; source: E. coli BL21 (DE3) pLysS, purified (glutathione-sepharose 4B)
T2 sequence (looked up): T1 sequence (looked up) with A108S

GST-VRK3^S108E = target: T3, GST-VRK3^S108E (human, UniProt Q8IV63 1-474, S108E)
T3 construct: vaccinia-related kinase 3 (VRK3), human; S108E (phosphomimetic) made by site-directed mutagenesis in pGEX4T-3; pGEX4T-3 vector; also called S108E mutant VRK3; phosphomimetic mutant of VRK3; source: E. coli BL21 (DE3) pLysS, purified (glutathione-sepharose 4B)
T3 sequence (looked up): T1 sequence (looked up) with A108E

Measured: binding result

B1: recombinant VHR (vaccinia H1-related phosphatase) (enzyme, human, UniProt P51452 1-185, looked up)
chain: MSGSFELSVQDLNDLLSDGSGCYSLPSQPCNEVTPRIYVGNASVAQDIPKLQKLGITHVLNAAEGRSFMHVNTNANFYKDSGITYLGIKANDTQEFNLSAYFERAADFIDQALAQKNGRVLVHCREGYSRSPTLVIAYLMMRQKMDVKSALSIVRQNREIGPNDGFLAQLCQLNDRLAKEGKLKP
notes: vaccinia H1-related (VHR) phosphatase; coding region amplified by RT-PCR from mRNA of human cell lines (SH-SY5Y, HEK293A, HeLa); source: E. coli BL21 (DE3) pLysS, purified
binds: GST-VRK3^S108A | [1] | GST-VRK3^S108E
